These results are taken from patent publication US20030082809A1 (University of California, published 2003).

What all share (assay): cell-based or functional assay
The target in experiment [1] is PIF3:GAD fusion protein (PIF3-GAL4-activation-domain fusion) (Arabidopsis) (UniProt O80536).
For experiment [2], the target named is GAD, GAL4-activation domain alone (UniProt P04386).
Experiment [3] has as its target T1, PIF3:GAD fusion protein (PIF3-GAL4-activation-domain fusion) (Arabidopsis, UniProt O80536 1-524, limits assumed).
T1 sequence: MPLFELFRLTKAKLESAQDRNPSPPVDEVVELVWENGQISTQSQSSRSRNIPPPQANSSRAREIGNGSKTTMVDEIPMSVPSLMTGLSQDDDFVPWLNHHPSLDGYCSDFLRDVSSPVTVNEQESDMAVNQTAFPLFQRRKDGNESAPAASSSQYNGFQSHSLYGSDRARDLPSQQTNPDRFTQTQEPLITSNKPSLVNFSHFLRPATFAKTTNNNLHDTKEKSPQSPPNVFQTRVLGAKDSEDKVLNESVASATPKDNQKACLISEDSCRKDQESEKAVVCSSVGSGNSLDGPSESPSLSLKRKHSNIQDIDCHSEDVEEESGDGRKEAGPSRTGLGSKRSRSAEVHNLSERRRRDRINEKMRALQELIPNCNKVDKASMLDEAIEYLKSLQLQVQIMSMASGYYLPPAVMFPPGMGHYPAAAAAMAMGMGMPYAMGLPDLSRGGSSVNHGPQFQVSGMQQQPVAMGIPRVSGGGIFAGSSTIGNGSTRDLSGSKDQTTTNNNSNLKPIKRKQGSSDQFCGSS

Chain of GAD, GAL4-activation domain alone (P04386 768-881 limits assumed): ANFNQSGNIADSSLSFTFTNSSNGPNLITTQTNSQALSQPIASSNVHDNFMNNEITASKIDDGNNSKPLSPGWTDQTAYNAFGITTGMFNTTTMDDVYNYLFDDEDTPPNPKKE

With “phyB(NT):GBD fusion protein, Pr form (PCB chromophore, in darkness or after far-red light) (from UniProt P14713 1-621; P04386 1-147)”, in experiment [1], the LacZ activity (M. U.), yeast two-hybrid liquid assay, Dark worked out at 0.1 M. U and the LacZ activity (M. U.), yeast two-hybrid liquid assay, Rp/FRp (red pulse followed at once by far-red pulse) stood at 0.1 M. U.

In experiment [2], “GBD, GAL4 DNA-binding domain alone (from UniProt P04386 1-147)” yielded a LacZ activity (M. U.), yeast two-hybrid liquid assay, Dark of 0.1 M. U; a LacZ activity (M. U.), yeast two-hybrid liquid assay, Rp of 0.2 M. U; a LacZ activity (M. U.), yeast two-hybrid liquid assay, Rp/FRp of 0.2 M. U.

B1: phyB(NT):GBD fusion protein, Pfr form (PCB chromophore, after red light) (other, UniProt P14713 1-621, looked up)
chain: MVSGVGGSGGGRGGGRGGEEEPSSSHTPNNRRGGEQAQSSGTKSLRPRSNTESMSKAIQQYTVDARLHAVFEQSGESGKSFDYSQSLKTTTYGSSVPEQQITAYLSRIQRGGYIQPFGCMIAVDESSFRIIGYSENAREMLGIMPQSVPTLEKPEILAMGTDVRSLFTSSSSILLERAFVAREITLLNPVWIHSKNTGKPFYAILHRIDVGVVIDLEPARTEDPALSIAGAVQSQKLAVRAISQLQALPGGDIKLLCDTVVESVRDLTGYDRVMVYKFHEDEHGEVVAESKRDDLEPYIGLHYPATDIPQASRFLFKQNRVRMIVDCNATPVLVVQDDRLTQSMCLVGSTLRAPHGCHSQYMANMGSIASLAMAVIINGNEDDGSNVASGRSSMRLWGLVVCHHTSSRCIPFPLRYACEFLMQAFGLQLNMELQLALQMSEKRVLRTQTLLCDMLLRDSPAGIVTQSPSIMDLVKCDGAAFLYHGKYYPLGVAPSEVQIKDVVEWLLANHADSTGLSTDSLGDAGYPGAAALGDAVCGMAVAYITKRDFLFWFRSHTAKEIKWGGAKHHPEDKDDGQRMHPRSSFQAFLEVVKSRSQPWETAEMDAIHSLQLILRDSFKESMKLLSSIEQACDICRLKKLKCSKEKPKCAKCLKNNWECRYSPKTKRSPLTRAHLTEVESRLERLEQLFLLIFPREDLDMILKMDSLQDIKALLTGLFVQDNVNKDAVTDRLASVETDMPLTLRQHRISATSSSEESSNKGQRQLTVS
modifications: phycocyanobilin (PCB) chromophore attached to the phytochrome moiety (residue not stated); Pfr conformer after red light
B1: in experiment [3], the “LacZ activity, fold induction 5 min after a 1 min saturating red-light pulse” value was determined as 2 fold; the “LacZ activity, fold induction 10 min after a 1 min saturating red-light pulse” value turned out to be 4 fold; the “LacZ activity, fold induction 30 min after a 1 min saturating red-light pulse” value stood at 50 fold; the “induction of LacZ expression above background by a single red-light pulse” value stood at 1000 fold.
